The target of assay [1] is T1, CD20 (UniProt P11836 1-297, limits assumed).
T1 construct: whole, on cells; Endogenous CD20 on Raji and Wil2-s cell lines; also called CD20 on Raji cells; CD20 on Wil2-s cells
T1 sequence (looked up): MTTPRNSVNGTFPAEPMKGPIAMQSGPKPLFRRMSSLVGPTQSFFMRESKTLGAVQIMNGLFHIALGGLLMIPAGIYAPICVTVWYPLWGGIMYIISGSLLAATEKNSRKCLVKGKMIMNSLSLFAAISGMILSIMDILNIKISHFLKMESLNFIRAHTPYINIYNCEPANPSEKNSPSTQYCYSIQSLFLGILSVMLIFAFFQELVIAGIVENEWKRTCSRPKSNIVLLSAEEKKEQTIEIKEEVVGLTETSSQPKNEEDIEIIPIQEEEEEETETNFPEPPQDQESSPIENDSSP
As to the kind of experiment: flow cytometry, antibody titrated on Wil2-s cells, FITC anti-human IgG1 Fab secondary. (A flow cytometer gives signals particle by particle.)

The target in assay [2] is T1, CD20. As to the kind of experiment: flow cytometry; Mean Kd over Raji and Wil2-s cells.
Assay [3] concerns the target T1, CD20. The assay can be described thus: flow cytometry, antibody titrated on Raji cells, FITC anti-human IgG1 Fab secondary.
Assay [4] deals with T1, CD20. The assay can be described thus: flow cytometry on Raji cells; Kd=[Ab]*{Fmax/(F-Fback)-1}.
The target in assay [5] is T1, CD20. As to the kind of experiment: flow cytometry on Wil2-s cells; Kd=[Ab]*{Fmax/(F-Fback)-1}.
Assay [6] concerns the target T2, FcγRIIIa 158V (UniProt P08637 17-208, biotin-labeled (site not stated)).
T2 construct: also called biotin-labeled FcγRIIIa 158V
The assay can be described thus: biosensor with SA sensor, biotin-FcγRIIIa 158V loaded, antibody in solution (7 concentrations, 2x gradient from 500 nM). As to the method: The sensor was pre-wetted in PBS for 10 min. […] AB solution, […], regeneration buffer, drug diluent and neutralization buffer were sequentially added to the corresponding columns of a 96-well plate. The SA sensor operates as follows: Baseline: detected the baseline in AB, 150 s; Association: combined in the gradient concentration of drug diluent sample and blank (AB) for 90 s; Dissociation: dissociated in AB for 120 s; Regeneration: regenerated in NaOH (pH 10.5) for 5 s; Neutralization: neutralized in AB for 5 s. The regeneration and neutralization cycles were carried out for 3 times. The collected data were analyzed by the instrument data analysis software Acquisition 8.2. Taking Baseline acquisition signal as a baseline and subtracting the reference signal (double deduction of sample blank and sensor blank), the data were subject to group analysis and fitted.

T2 sequence (P08637 17-208 F176V): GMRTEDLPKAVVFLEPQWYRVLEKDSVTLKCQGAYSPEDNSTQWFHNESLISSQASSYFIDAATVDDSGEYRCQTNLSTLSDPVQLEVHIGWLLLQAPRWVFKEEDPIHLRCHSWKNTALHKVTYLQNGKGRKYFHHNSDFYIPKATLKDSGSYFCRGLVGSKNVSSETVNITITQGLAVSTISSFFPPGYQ

B1: Rituximab (antibody, V domains shown)
VH: QVQLQQPGAELVKPGASVKMSCKASGYTFTSYNMHWVKQTPGRGLEWIGAIYPGNGDTSYNQKFKGKATLTADKSSSTAYMQLSSLTSEDSAVYYCARSTYYGGDWYFNVWGAGTTVTVSA
VL: QIVLSQSPAILSASPGEKVTMTCRASSSVSYIHWFQQKPGSSPKPWIYATSNLASGVPVRFSGSGSGTSYSLTISRVEAEDAATYYCQQWTSNPPTFGGGTKLEIK
What is called IC50 is the concentration needed to halve the response being measured. By Kd is commonly meant the free concentration of one partner at which half of the binding sites on the other are occupied at equilibrium, for simple one-to-one binding. The low end stands for higher affinity, the high end for lower affinity. Regarding B1, the IC50 in assay [1] turned out to be 16.8 nM; in assay [3], 13.3 nM. Further, the Kd in assay [2] is 14.3 nM; in assay [4], 12.7 nM; in assay [5], 16 nM.

B2: BAT4306F (antibody, human IgG1)
light: DIVMTQTPLSLPVTPGEPASISCRSSKSLLHSNGITYLYWYLQKPGQSPQLLIYQMSNLVSGVPDRFSGSGSGTDFTLKISRVEAEDVGVYYCAQNLELPYTFGGGTKVEIKR
heavy: not shown
modifications: N-linked oligosaccharide without fucose (produced in FUT8 knockout CHO-2G8 / CHO-BAT-KF cells)
notes: Humanized anti-CD20 IgG with B-HH6 heavy and B-KV1 light variable regions from B-Ly1 (WO2005044859); Non-fucosylated glycoform; also called carbohydrate chain modified BAT4306F
B2 came in with a Kd in assay [6] of 25.7 nM.

These data come from US20200199236A1 (BIO THERA SOLUTIONS, published 2020).
